Measurements reported in patent publication US20220095596A1, “USE OF ECM1 GENE-KNOCKOUT MOUSE IN SCREENING OF ANTI-HEPATIC FIBROSIS DRUG” (CENTER FOR EXCELLENCE IN MOLECULAR CELL SCIENCE, CHINESE …, priority 2018, published 2022).

B1: recombinant mouse ECM1 protein: Recombinant mouse extracellular matrix protein 1 added to the culture medium (protein, UniProt Q61508 20-559, looked up)
Extracellular matrix protein 1: ASEGAFKASDQREMTPERLFQHLHEVGYAAPPSPPQTRRLRVDHSVTSLHDPPLFEEQREVQPPSSPEDIPVYEEDWPTFLNPNVDKAGPAVPQEAIPLQKEQPPPQVHIEQKEIDPPAQPQEEIVQKEVKPHTLAGQLPPEPRTWNPARHCQQGRRGVWGHRLDGFPPGRPSPDNLKQICLPERQHVIYGPWNLPQTGYSHLSRQGETLNVLETGYSRCCRCRSDTNRLDCLKLVWEDAMTQFCEAEFSVKTRPHLCCRLRGEERFSCFQKEAPRPDYLLRPCPVHQNGMSSGPQLPFPPGLPTPDNVKNICLLRRFRAVPRNLPATDAIQRQLQALTRLETEFQRCCRQGHNHTCTWKAWEGTLDGYCERELAIKTHPHSCCHYPPSPARDECFAHLAPYPNYDRDILTLDLSRVTPNLMGQLCGSGRVLSKHKQIPGLIQNMTIRCCELPYPEQACCGEEEKLAFIENLCGPRRNSWKDPALCCDLSPEDKQINCFNTNYLRNVALVAGDTGNATGLGEQGPTRGTDANPAPGSKEE

Tests used:
[1] = tested on: primary stellate cells (HSC); assay: Self-activation of primary stellate cells (HSC) cultured in vitro, related gene expression by RT-PCR; format: cell-based; details: ECM1 protein 50 µg/ml, cRGD 10 µg/ml; WT mouse HSC cultured in vitro 2 weeks, vs unrelated IgG (NC)
Description: B: Primary stellate cells (HSC) from the liver of wild-type mouse (WT) are isolated and cultured in vitro for 2 weeks. Recombinant mouse ECM1 protein ([…]), cRGD ([…]) or unrelated IgG protein ([…]) are added to the culture medium as negative control (NC). Changing fresh culture medium every 3 days. Two weeks later, It is lysed with TRIZO and mRNA is extracted, and cDNA is obtained by reverse transcription. Finally, the expression of related genes is detected by RT-PCR.
The primary stellate cells (HSC) of the mouse liver will self-activate during in vitro culture. This is because of the change in culture conditions, the Latent TGF-β1 secreted by the cells will be activated by integrin αv on the cell surface to activate stellate cells (HSC). In this process, the addition of integrin αv inhibitor (cRGD) or TGF-β1 neutralizing antibody will inhibit the self-activation of stellate cells (HSC).
Therefore, primary stellate cells (HSC) from the liver of wild-type mice (WT) were isolated and cultured in vitro for 2 weeks. Recombinant mouse ECM1 protein ([…]), cRGD ([…]) or unrelated IgG protein ([…]) were added to the culture medium as negative control (NC). Changing fresh culture solution every 3 days. […] Finally, the expression of related genes was detected by RT-PCR to determine the activation degree of primary stellate cells (HSC).

[2] = tested on: Latent TGF-β1 activation on the surface of stellate cells (HSC); assay: TGF-β1 activity reporter co-culture of primary HSC with NIH-3T3 luciferase reporter cells; format: cell-based; details: 50 g/ml in culture medium, 16 hours of culture, WT mouse HSC with NIH-3T3 reporter cells, vs unrelated IgG (NC)
Description: A: Primary stellate cells (HSC) from the liver of wild-type mice (WT) are isolated and co-cultured with NIH-3T3 cells containing the TGF-β1 activity reporter system. Recombinant mouse ECM1 protein ([…]), cRGD ([…]) or unrelated IgG protein ([…]) are added to the culture medium as negative control (NC). After 16 hours of the culture, the cells are lysed, and Luciferase activity in the lysate is detected.
The process of Latent TGF-β1 activation to TGF-β1 is a transient effect. Activated TGF-β1 will bind to TGF-β1 receptor on the adjacent cell surface, phosphorylating the downstream SMAD protein, and then activating the downstream gene expression. In order to better detect the process of Latent TGF-β1 activation to TGF-β1, we used a co-culture system to detect the […] activation process that occurs on the surface of HSC stellate cells. A luciferase reporter gene was stably transfected into NIH-3T3 cells. There are 4 repeated SMAD binding sites in the upstream of this reporter gene. […]
Firstly, primary stellate cells (HSC) of wild-type mouse (WT) liver were isolated and co-cultured with NIH-3T3 cells containing TGF-β1 activity reporter system. […] After 16 hours of culture, the cells were lysed, and Luciferase activity in the lysate was detected. […]

Molecule | activation of stellate cells (HSC), expression of related genes by RT-PCR [1] | activation of Latent TGF-β1 on the surface of stellate cells (HSC), Luciferase activity [2]
cRGD [reference compound] | significantly inhibit | –
B1 | significantly inhibit | significantly inhibit
